# Measurements: patent US20240109974A1 (SHANDONG SIMCERE BIOPHARMACEUTICAL, published 2024)
# Assays:
# [1] = molecular target: T1, human TNFR2 (Novoprotein, Cat #C830) (human, UniProt P20333 23-257, limits assumed); experiment: competition ELISA, competitor human TNFα-Biotin; AUC against 001-WT
# T1 construct: construct not described; also called human TNFR2 protein
# T1 sequence (looked up): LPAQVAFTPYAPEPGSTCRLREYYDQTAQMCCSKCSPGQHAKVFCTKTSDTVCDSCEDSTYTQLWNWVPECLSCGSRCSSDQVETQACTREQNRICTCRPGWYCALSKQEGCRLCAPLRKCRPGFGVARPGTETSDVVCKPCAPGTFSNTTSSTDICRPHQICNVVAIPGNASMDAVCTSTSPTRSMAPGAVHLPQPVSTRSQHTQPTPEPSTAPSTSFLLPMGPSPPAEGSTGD
# Protocol: (§1) 1 μg/ml human TNFR2 (Novoprotein, Cat #C830) was pre-coated with 100 μl/well […] in an ELISA plate. All the test TNFR2 antibodies were subjected to 2.5-fold gradient dilution from the highest concentration of 30 μg/ml; the diluted antibodies were mixed with 15 ng/ml human TNFα-Biotin (Acro Biosystem, Cat #TNA-H82E3) in equal volume, respectively; the resulting mixture was added to the ELISA plate at 100 μl/well, and incubated with shaking at room temperature for 2.0 hours. The plate was washed, and then a Streptavidin-HRP working solution (diluted at 1:10000) was added at 100 μl/well, and the mixture was incubated with shaking at room temperature for 40 minutes. The plate was washed again, and then the substrate TMB of HRP was added to develop colour. A stop solution was added to stop the reaction, and then a microplate reader (MD 13) was used to read the absorbance value. The inhibitory curve of an antibody was drawn with antibody concentration as the abscissa and corresponding OD value as the ordinate, and fitted with four parameters (GraphPad Prism9) to calculate the IC50 value. The smaller the IC50 value, the stronger the ability of an antibody to inhibit the binding of human TNFα to human TNFR2. The blocking effect of a humanized antibody was normalized to its corresponding human-murine chimeric antibody WT. The higher the percentage value, the better the inhibitory effect of the humanized antibody.
# [2] = molecular target: T1, human TNFR2 (Novoprotein, Cat #C830); experiment: competition ELISA: antibody titrated against human TNFα-Biotin on coated human TNFR2 (Novoprotein), detection with Streptavidin-HRP [panel C]
# Protocol: as §1, with “The higher the percentage value, the better the inhibitory effect of the humanized antibody.” left out
# [3] = molecular target: T2, human TNFR2 on the surface of CHO-TNFR2 cells (human, UniProt P20333 23-461); experiment: flow cytometry competition: antibody titrated on CHO-TNFR2 cells, then human TNFα-biotin, detection with PE-streptavidin [panel B]
# T2 construct: whole, on cells
# T2 sequence (looked up): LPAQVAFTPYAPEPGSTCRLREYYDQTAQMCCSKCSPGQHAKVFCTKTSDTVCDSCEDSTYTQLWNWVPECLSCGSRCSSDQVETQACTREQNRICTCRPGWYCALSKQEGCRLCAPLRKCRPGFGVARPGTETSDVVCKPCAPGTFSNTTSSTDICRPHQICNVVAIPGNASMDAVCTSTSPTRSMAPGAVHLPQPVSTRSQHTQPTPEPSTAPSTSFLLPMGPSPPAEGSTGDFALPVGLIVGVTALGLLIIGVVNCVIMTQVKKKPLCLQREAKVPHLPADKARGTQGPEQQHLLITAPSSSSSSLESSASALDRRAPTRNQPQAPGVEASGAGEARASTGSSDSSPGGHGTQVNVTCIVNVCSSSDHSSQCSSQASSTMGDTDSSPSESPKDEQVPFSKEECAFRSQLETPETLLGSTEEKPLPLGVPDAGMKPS
# Protocol: CHO stable cells highly expressing human TNFR2 were used for the experiment (the same as CHO-TNFR2 in Example 4). The CHO-TNFR2 cells were digested, washed twice with DPBS, then stained with Live/Dead (L/D) (20 minutes at room temperature), and plated at a density of 1×10⁵ cells/50 μl/well. A test anti-TNFR2 antibody was diluted to 6 μg/ml with a staining buffer as the starting concentration: the antibody was subjected to 3.33-fold gradient dilution, with a total of 7 concentration points. The diluted antibody was added to the plated cells at 50 μl/well, and the mixture was mixed well by gentle pipetting, and incubated at 4° C. for 30 minutes. Then the diluted 100 ng/ml of human TNFα-biotin was added at 100 μl/well, and the mixture was mixed well by gentle pipetting, and then incubated at 4° C. for 30 minutes. The mixture was washed twice with a staining buffer, and then 0.12 μg/ml PE-streptavidin (BioLegend, Cat #405204) was added at 100 μl/well; the resulting mixture was incubated at 4° C. for 30 minutes. The mixture was washed twice with a staining buffer, and then 150 μl of staining buffer was added to resuspend the cells; signals were detected by a flow cytometer (Thermo Attune NxT). […]
Binder,% Relative activity (WT antibody/test antibody) [1] [%],other results
"001-Hu5 (antibody, V domains shown, Humanized form of #001; also called VH1 + VL4) VH: EVQLVESGGGLVQPGGSLRLSCAASGFAFSTYDLSWVRQAPGKGLEWVAYINNGGISTYYSDTVKGRFTISRDNAKNTLYLQMNSLRAEDTAVYYCVRGPFYGSANYFDYWGQGTLVTVSS VL: DIQMTQSPSSLSASVGDRVTITCRTSESIYSNLPWYQQKPGKSPKLLVYDATKLAEGVPSRFSGSGSGTDYTLTISSLQPEDFATYYCQHFWVTPWTFGQGTKVEIK",98,
"001-Hu4 (antibody, V domains shown, Humanized form of #001; also called VH2 + VL4) VH: EVQLVESGGGLVQPGGSLRLSCAASGFAFSTYDLSWVRQAPGKGLEWVAYINNGGISTYYSDTVKGRFTISRDNAKNSLYLQMNSLRAEDTAVYYCVRGPFYGSANYFDYWGQGTLVTVSS VL: DIQMTQSPSSLSASVGDRVTITCRTSESIYSNLPWYQQKPGKSPKLLVYDATKLAEGVPSRFSGSGSGTDYTLTISSLQPEDFATYYCQHFWVTPWTFGQGTKVEIK",101,
"001-Hu3 (antibody, V domains shown, Humanized form of #001; also called VH1 + VL3) VH: EVQLVESGGGLVQPGGSLRLSCAASGFAFSTYDLSWVRQAPGKGLEWVAYINNGGISTYYSDTVKGRFTISRDNAKNTLYLQMNSLRAEDTAVYYCVRGPFYGSANYFDYWGQGTLVTVSS VL: DIQMTQSPSSLSASVGDRVTITCRTSESIYSNLPWYQQKPGKAPKLLIYDATKLAEGVPSRFSGSGSGTDYTLTISSLQPEDFATYYCQHFWVTPWTFGQGTKVEIK",99.4,
"001-Hu1 (antibody, V domains shown, Humanized form of #001; also called VH1 + VL1) VH: EVQLVESGGGLVQPGGSLRLSCAASGFAFSTYDLSWVRQAPGKGLEWVAYINNGGISTYYSDTVKGRFTISRDNAKNTLYLQMNSLRAEDTAVYYCVRGPFYGSANYFDYWGQGTLVTVSS VL: DIQMTQSPSSLSASVGDRVTITCRTSESIYSNLPWYQQKPGKAPKLLLYDATKLAEGVPSRFSGSGSGTDYTLTISSLQPEDFATYYCQHFWVTPWTFGQGTKVEIK",98,
"001-Hu2 (antibody, V domains shown, Humanized form of #001; also called VH2 + VL2) VH: EVQLVESGGGLVQPGGSLRLSCAASGFAFSTYDLSWVRQAPGKGLEWVAYINNGGISTYYSDTVKGRFTISRDNAKNSLYLQMNSLRAEDTAVYYCVRGPFYGSANYFDYWGQGTLVTVSS VL: DIQMTQSPSSLSASVGDRVTITCRTSESIYSNLPWYQQKPGKSPKLLIYDATKLAEGVPSRFSGSGSGTDFTLTISSLQPEDFATYYCQHFWVTPWTFGQGTKVEIK",97.1,
"224-WT (antibody, V domains shown, Human-murine chimeric wild-type molecule; also called human-murine chimeric antibody WT of #224) VH: EVQLQESGPEIVKPGASVKLSCTASGFNNKDIYMHWVKQRPEQGLEWIGRIDPATGNTKHDPKFQDKATLSSDTSSNTAYLQFSSLTSEDTAVYYCAHSPYGDFGAMDYWGQGTTVTVSS VL: DIQMTQSPAIMSASLGERVTMTCTASSSVSSNYLHWYQQKPGSSPKLWIYSTSNLPSGVPARFSGSGSGTSYSLTISSMEAEDAATYYCHQYHRSPWTFGGGTKLEIK",,IC50 (read off the curve) [2]: ~0.5 mg/L
"219-WT (antibody, V domains shown, Human-murine chimeric wild-type molecule) VH: EVQLQESGAELVRPGASVKLSCKASGYSFTNYWMNWVKQRPGQGLEWIGMIHPSDTETRLNQNFKDKATLTVDKSSSTSYMQLSSPTSEDSAVYYCARGEGLGAARSVSMDYWGQGTTVTVSS VL: DILMTQSPSSLSASLGDRVTISCRASQDISNYLNWYQQKPDGTVKVLIYYTAILHSGVPSRFSGSGSGTDYSLTISNLEQEDIATYFCQQGNTLPWTFGGGTKLEIK",,IC50 (read off the curve) [3]: ~0.05 mg/L
